Source: patent US20240132595A1

Tests used:
[1] = target: canine MHC Class I DLA-12 antigen (canine (Canis lupus familiaris)); experiment: flow cytometry on cells of CLBL-1 xenograft tumours (PBS group) [B]
[2] = target: canine MHC Class I DLA-12 antigen (canine (Canis lupus familiaris)); experiment: flow cytometry on canine PBMCs [E]

FL1-H (percent of cells in the positive gate) [1] [%] | FITC-H subset (percent of cells in the positive gate) [2] [%] | FITC-A (percent of cells in the positive gate) [1] [%] | Binder
89.4 | 59.4 |  | cLy-m10C5 (antibody, V domains shown) VH: EVQLQQSGPELVKPGASVKISCKASGYTFTDYNMHWVKQSHGKSLEWIGYIYPYNGGTDYNQKFKSKATLTVDNSSSTAYMELRSLTSDDSTVYYCARGGLVGAMDYWGQGTSVTVSS VL: DIQMTQSPASLSASVGETVTITCRASGNIHNSLAWYQQKQGKSPQLLVYNAKTLPDGVPSRFSGSGSGTQYSLKINSLQPEDFGSYYCQHFWSIPWTFGGGTKLEIK
 |  | 98.7 | cLy-c10C5 (antibody, V domains shown) VH: EVQLQQSGPELVKPGASVKISCKASGYTFTDYNMHWVKQSHGKSLEWIGYIYPYNGGTDYNQKFKSKATLTVDNSSSTAYMELRSLTSDDSTVYYCARGGLVGAMDYWGQGTSVTVSS VL: DIQMTQSPASLSASVGETVTITCRASGNIHNSLAWYQQKQGKSPQLLVYNAKTLPDGVPSRFSGSGSGTQYSLKINSLQPEDFGSYYCQHFWSIPWTFGGGTKLEIK
